From PMC8980629, “c-Abl kinase-mediated phosphorylation of γ-tubulin promotes γ-tubulin ring complexes assembly and microtubule nucleation” (The Journal of Biological Chemistry, 2022)

Target: T1, Flag-γ-tubulin (human, UniProt P23258 1-451)
T1 construct: γ-tubulin (tubg1), full-length cDNA amplified from an MCF-7 cDNA library, in a pcDNA3.0-based vector; also called wild-type Flag-γ-tubulin; source: HEK293T, transfected, in lysate; anti-Flag immunoprecipitated and resolved by SDS-PAGE for the far-Western; not shown: Flag, N-terminal, kept
Assay: far-Western, overlay or dot blot; anti-Flag immunoprecipitates from HEK293T resolved by SDS-PAGE and blotted onto PVDF; membrane incubated with purified GST or GST fusion protein 2 h at room temperature; probed with anti-GST
Conditions: both partners purified

T1 sequence (P23258 whole entry): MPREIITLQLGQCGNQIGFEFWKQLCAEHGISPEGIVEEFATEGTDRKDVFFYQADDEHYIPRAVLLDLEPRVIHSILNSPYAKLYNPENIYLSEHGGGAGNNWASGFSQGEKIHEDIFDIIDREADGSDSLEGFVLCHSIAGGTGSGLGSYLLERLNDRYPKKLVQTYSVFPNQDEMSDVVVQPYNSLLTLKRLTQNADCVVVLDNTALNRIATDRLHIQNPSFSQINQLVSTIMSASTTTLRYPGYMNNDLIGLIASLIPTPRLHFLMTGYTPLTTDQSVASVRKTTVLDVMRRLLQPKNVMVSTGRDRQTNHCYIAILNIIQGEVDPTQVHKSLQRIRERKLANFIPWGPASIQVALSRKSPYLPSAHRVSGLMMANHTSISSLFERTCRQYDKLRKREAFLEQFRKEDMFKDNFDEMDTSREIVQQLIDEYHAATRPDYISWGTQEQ

B1: GST-c-Abl SH2 (domain or fragment, UniProt P00519 127-217, looked up)
chain: WYHGPVSRNAAEYLLSSGINGSFLVRESESSPGQRSISLRYEGRVYHYRINTASDGKLYVSSESRFNTLAELVHHHSTVADGLITTLHYPA
notes: SH2 domain of c-Abl; source: purified GST fusion protein; not shown: GST, N-terminal, kept
- binding result: binds
